For this data set the following is noted: Aspergillus oryzae (strain ATCC 42149 / RIB 40), 25 °C, GdnHCl, Absorbance, reversible: yes, whole UniProt chain shown.

B1: Guanyl-specific ribonuclease T1 wild type, P00651 (protein)
chain: MMYSKLLTLTTLLLPTALALPSLVERACDYTCGSNCYSSSDVSTAQAAGYQLHEDGETVGSNSYPHKYNNYEGFDFSVSSPYYEWPILSSGDVYSGGSPGADRVVFNENNQLAGVITHTGASGNNFVECT
For B1, the denaturant m value runs as follows: (pH 3, beta-alanine 0.1 M) 1.85 kcal/mol/M; (pH 3.5, beta-alanine 0.1 M) 1.7 kcal/mol/M; (pH 6, Bis-Tris 0.1 M) 1.36 kcal/mol/M; (pH 7, HEPES 0.1 M) 1.28 kcal/mol/M; (pH 8.5, taurine 0.1 M) 1.21 kcal/mol/M. The “denaturant midpoint (higher = more stable)” value by setting is: (pH 3, beta-alanine 0.1 M) 2.42 M; (pH 3.5, beta-alanine 0.1 M) 3.4 M; (pH 6, Bis-Tris 0.1 M) 6.49 M; (pH 7, HEPES 0.1 M) 7.26 M; (pH 8.5, taurine 0.1 M) 7.69 M. Further, the unfolding free energy runs as follows: (pH 3, beta-alanine 0.1 M) 4.48 kcal/mol; (pH 3.5, beta-alanine 0.1 M) 5.78 kcal/mol; (pH 6, Bis-Tris 0.1 M) 8.82 kcal/mol; (pH 7, HEPES 0.1 M) 9.26 kcal/mol; (pH 8.5, taurine 0.1 M) 9.3 kcal/mol.

(Values after FireProtDB (doi:10.1021/bi00011a035).)
